Experimental findings from patent US20190330277A1 are described below.

In this test the target is bRSV ATue51908 postF (bovine respiratory syncytial virus, strain ATue51908), P22167. Briefly: biolayer interferometry (Octet), variant on Ni-NTA tip, Fab in solution. To be noted: remark: other sources report otherwise. Background: In BLI a coated tip is dipped into the sample, and binding shifts an interference pattern.

B1: MPE8 Fab (Fab, V domains shown)
VH: EVQLVESGGGLVKPGGSLRLSCAASGFTFSSYSMNWVRQAPGKGLEWVSSISASSSYSDYADSAKGRFTISRDNAKTSLFLQMNSLRAEDTAIYFCARARATGYSSITPYFDIWGQGTLVTVSS
VL: QSVVTQTPSVSGAPGQRVTISCTGSSSNIGAGYDVHWYQQLPGTAPKLLIYDNNNRPSGVPDRFSASKSGTSASLAITGLQAEDEADYYCQSYDRNLSGVFGTGTKVTVL
As for B1, the Kd is greater than 1000 nM.

For orientation: Kd means a measure of binding affinity in units of concentration. Read a high Kd as weaker binding.
